Assay results as given in US20230257470A1 (published 2023).

T1: human FcγRIIa(R) (human, UniProt P12318 36-217)
T1 construct: also called FcgRIIaR; FcγRIIa type R
T1 chain: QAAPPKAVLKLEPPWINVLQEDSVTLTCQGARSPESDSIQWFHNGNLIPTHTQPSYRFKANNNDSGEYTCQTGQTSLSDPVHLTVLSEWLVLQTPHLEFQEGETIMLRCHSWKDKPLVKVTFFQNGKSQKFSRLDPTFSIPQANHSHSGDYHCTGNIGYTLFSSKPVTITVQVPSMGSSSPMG

T2: human FcγRIIa(H) (human, UniProt P12318 36-217)
T2 construct: also called FcgRIIaH; FcγRIIa type H
T2 sequence: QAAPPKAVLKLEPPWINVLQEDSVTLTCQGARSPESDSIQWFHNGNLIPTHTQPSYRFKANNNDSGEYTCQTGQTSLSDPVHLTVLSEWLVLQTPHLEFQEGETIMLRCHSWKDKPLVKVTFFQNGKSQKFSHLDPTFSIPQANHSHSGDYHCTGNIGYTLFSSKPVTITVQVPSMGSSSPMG

T3: human FcγRIIb (human, UniProt P31994 43-217, limits assumed)
T3 construct: also called FcgRIIb; FcγIIB
T3 sequence: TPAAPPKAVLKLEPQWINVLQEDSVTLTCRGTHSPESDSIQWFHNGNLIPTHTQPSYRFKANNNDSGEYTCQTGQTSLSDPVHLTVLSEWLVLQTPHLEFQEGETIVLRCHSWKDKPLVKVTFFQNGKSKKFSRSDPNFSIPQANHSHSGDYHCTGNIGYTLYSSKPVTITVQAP


Experiments:
Assay in all cases: SPR (Biacore), antibody captured, FcγR as analyte; amount bound / that of GpH7-B3/GpL16-k0 x 100;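 further: FcγR binding response divided by the captured antibody amount before comparison, measured at 25 °C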
human FcγRIIa(R) = target: T1, human FcγRIIa(R)
Description: (§1) Interaction between each modified antibody and Fcγ receptor prepared in the manner described above was analyzed using the BIACORE™ T100 surface plasmon resonance system (GE Healthcare), BIACORE™ T200 surface plasmon resonance system (GE Healthcare), BIACORE™ A100 surface plasmon resonance system or BIACORE™ 4000 surface plasmon resonance system. HBS-EP+(GE Healthcare) was used for the running buffer, and measurements were carried out at 25° C. The chips used were chips in which antigen peptides, Protein A (Thermo Scientific), Protein A/G (Thermo Scientific) or Protein L (ACTIGEN® protein (Alltech or BioVision) were immobilized on the Series S Sensor Chip CM5 (GE Healthcare) or Series S Sensor Chip CM4 (GE Healthcare) by amine coupling, or chips in which preliminarily biotinylated antigen peptides were allowed to interact and then immobilized on the Series S Sensor Chip SA (certified) (GE Healthcare). The target antibodies were captured on these sensor chips, Fcγ receptor diluted with the running buffer was allowed to interact, followed by measurement of the amount of bound antibody. The amounts bound were compared between antibodies. However, since the amount of Fcγ receptor bound depends on the amount of captured antibody, the values used for comparison were first corrected by dividing the amount of Fcγ receptor bound by the captured amount of each antibody. Through reaction with 10 mM glycine-HCl at pH 1.5, the sensor chips were regenerated by washing off antibody captured on the sensor chips and used repeatedly.
(§2) Binding strength was evaluated according to the following method based on the results of analyzing the interaction with each FcγR. […] That value was then further multiplied by 100, and the resulting value was used as an indicator of relative binding activity to each FcγR.

human FcγRIIa(H) = target: T2, human FcγRIIa(H)
Description: as §1, §2

human FcγRIa = target: T4, human FcγRIa (human, UniProt P12314 16-292, limits assumed)
T4 construct: also called FcgRIa; CD64
Description: as §1, §2

human FcγRIIIa(F) = target: T5, human FcγRIIIa(F) (human, UniProt P08637 17-208, limits assumed)
T5 construct: also called FcgRIIIaF; FcγRIIIa allotype F158
Description: as §1, §2

human FcγRIIb = target: T3, human FcγRIIb
Description: as §1, §2

T5 sequence (P08637 other isoform, or with tags, fused parts or gaps limits assumed): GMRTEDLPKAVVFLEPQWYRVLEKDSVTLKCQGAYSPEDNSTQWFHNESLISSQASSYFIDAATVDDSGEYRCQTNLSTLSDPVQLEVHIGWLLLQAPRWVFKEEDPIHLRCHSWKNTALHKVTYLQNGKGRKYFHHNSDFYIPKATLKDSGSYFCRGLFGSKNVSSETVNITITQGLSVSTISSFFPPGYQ
T4 sequence (P12314 16-292 limits assumed): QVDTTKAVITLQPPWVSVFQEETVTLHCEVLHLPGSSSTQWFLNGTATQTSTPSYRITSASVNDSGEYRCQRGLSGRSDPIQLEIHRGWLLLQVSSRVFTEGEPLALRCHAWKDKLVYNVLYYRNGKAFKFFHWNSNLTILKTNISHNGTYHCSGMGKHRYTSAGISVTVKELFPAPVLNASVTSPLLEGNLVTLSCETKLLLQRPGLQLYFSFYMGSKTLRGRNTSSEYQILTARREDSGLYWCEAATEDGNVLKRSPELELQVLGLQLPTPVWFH

Binder | relative binding activity (human FcγRIIa(R)) [GpH7-B3/GpL16-k0 = 100] | relative binding activity (human FcγRIIa(H)) [GpH7-B3/GpL16-k0 = 100] | relative binding activity (human FcγRIa) [GpH7-B3/GpL16-k0 = 100] | relative binding activity (human FcγRIIIa(F)) [GpH7-B3/GpL16-k0 = 100] | relative binding activity (human FcγRIIb) [GpH7-B3/GpL16-k0 = 100]
GpH7-B3/GpL16-k0 variant D270L (antibody, human IgG1, also called B3 variant; copies: 2 + 2) heavy: not shown light: DIVMTQSPLSLPVTPGEPASISCQASESLVHSNRNTYLHWYLQKPGQSPQLLIYKVSNRFSGVPDRFSGSGSGTDFTLKISRVEAEDVGVYYCSQNTHVPPTFGQGTKVEIE | 6 | 61 | 90 | 33 | 3
GpH7-B3/GpL16-k0 variant P271S (antibody, human IgG1, also called B3 variant; copies: 2 + 2) heavy: not shown light: DIVMTQSPLSLPVTPGEPASISCQASESLVHSNRNTYLHWYLQKPGQSPQLLIYKVSNRFSGVPDRFSGSGSGTDFTLKISRVEAEDVGVYYCSQNTHVPPTFGQGTKVEIE | 83 | 67 | 99 | 62 | 82
GpH7-B3/GpL16-k0 variant D270M (antibody, human IgG1, also called B3 variant; copies: 2 + 2) heavy: not shown light: DIVMTQSPLSLPVTPGEPASISCQASESLVHSNRNTYLHWYLQKPGQSPQLLIYKVSNRFSGVPDRFSGSGSGTDFTLKISRVEAEDVGVYYCSQNTHVPPTFGQGTKVEIE | 7 | 57 | 90 | 29 | 6
GpH7-B3/GpL16-k0 variant P271Y (antibody, human IgG1, also called B3 variant; copies: 2 + 2) heavy: not shown light: DIVMTQSPLSLPVTPGEPASISCQASESLVHSNRNTYLHWYLQKPGQSPQLLIYKVSNRFSGVPDRFSGSGSGTDFTLKISRVEAEDVGVYYCSQNTHVPPTFGQGTKVEIE | 38 | 48 | 98 | 33 | 28
GpH7-B3/GpL16-k0 variant P271R (antibody, human IgG1, also called B3 variant; copies: 2 + 2) heavy: not shown light: DIVMTQSPLSLPVTPGEPASISCQASESLVHSNRNTYLHWYLQKPGQSPQLLIYKVSNRFSGVPDRFSGSGSGTDFTLKISRVEAEDVGVYYCSQNTHVPPTFGQGTKVEIE | 89 | 99 | 100 | 76 | 87
GpH7-B3/GpL16-k0 variant P271T (antibody, human IgG1, also called B3 variant; copies: 2 + 2) heavy: not shown light: DIVMTQSPLSLPVTPGEPASISCQASESLVHSNRNTYLHWYLQKPGQSPQLLIYKVSNRFSGVPDRFSGSGSGTDFTLKISRVEAEDVGVYYCSQNTHVPPTFGQGTKVEIE | 73 | 42 | 98 | 31 | 78
GpH7-B3/GpL16-k0 variant D270W (antibody, human IgG1, also called B3 variant; copies: 2 + 2) heavy: not shown light: DIVMTQSPLSLPVTPGEPASISCQASESLVHSNRNTYLHWYLQKPGQSPQLLIYKVSNRFSGVPDRFSGSGSGTDFTLKISRVEAEDVGVYYCSQNTHVPPTFGQGTKVEIE | -2 | 38 | 74 | 7 | -2
GpH7-B3/GpL16-k0 variant P271F (antibody, human IgG1, also called B3 variant; copies: 2 + 2) heavy: not shown light: DIVMTQSPLSLPVTPGEPASISCQASESLVHSNRNTYLHWYLQKPGQSPQLLIYKVSNRFSGVPDRFSGSGSGTDFTLKISRVEAEDVGVYYCSQNTHVPPTFGQGTKVEIE | 49 | 55 | 99 | 39 | 38
GpH7-B3/GpL16-k0 variant D270S (antibody, human IgG1, also called B3 variant; copies: 2 + 2) heavy: not shown light: DIVMTQSPLSLPVTPGEPASISCQASESLVHSNRNTYLHWYLQKPGQSPQLLIYKVSNRFSGVPDRFSGSGSGTDFTLKISRVEAEDVGVYYCSQNTHVPPTFGQGTKVEIE | 0 | 49 | 73 | 17 | -1
GpH7-B3/GpL16-k0 variant D270V (antibody, human IgG1, also called B3 variant; copies: 2 + 2) heavy: not shown light: DIVMTQSPLSLPVTPGEPASISCQASESLVHSNRNTYLHWYLQKPGQSPQLLIYKVSNRFSGVPDRFSGSGSGTDFTLKISRVEAEDVGVYYCSQNTHVPPTFGQGTKVEIE | 1 | 37 | 84 | 19 | 3
GpH7-B3/GpL16-k0 variant Q295F (antibody, human IgG1, also called B3 variant; copies: 2 + 2) heavy: not shown light: DIVMTQSPLSLPVTPGEPASISCQASESLVHSNRNTYLHWYLQKPGQSPQLLIYKVSNRFSGVPDRFSGSGSGTDFTLKISRVEAEDVGVYYCSQNTHVPPTFGQGTKVEIE | 46 | 74 | 99 | 46 | 30
GpH7-B3/GpL16-k0 variant D270R (antibody, human IgG1, also called B3 variant; copies: 2 + 2) heavy: not shown light: DIVMTQSPLSLPVTPGEPASISCQASESLVHSNRNTYLHWYLQKPGQSPQLLIYKVSNRFSGVPDRFSGSGSGTDFTLKISRVEAEDVGVYYCSQNTHVPPTFGQGTKVEIE | -5 | 11 | 45 | 2 | -5
GpH7-B3/GpL16-k0 variant Q295D (antibody, human IgG1, also called B3 variant; copies: 2 + 2) heavy: not shown light: DIVMTQSPLSLPVTPGEPASISCQASESLVHSNRNTYLHWYLQKPGQSPQLLIYKVSNRFSGVPDRFSGSGSGTDFTLKISRVEAEDVGVYYCSQNTHVPPTFGQGTKVEIE | 43 | 37 | 95 | 64 | 40
GpH7-B3/GpL16-k0 variant D270N (antibody, human IgG1, also called B3 variant; copies: 2 + 2) heavy: not shown light: DIVMTQSPLSLPVTPGEPASISCQASESLVHSNRNTYLHWYLQKPGQSPQLLIYKVSNRFSGVPDRFSGSGSGTDFTLKISRVEAEDVGVYYCSQNTHVPPTFGQGTKVEIE | -1 | 34 | 68 | 13 | -2
GpH7-B3/GpL16-k0 variant P271H (antibody, human IgG1, also called B3 variant; copies: 2 + 2) heavy: not shown light: DIVMTQSPLSLPVTPGEPASISCQASESLVHSNRNTYLHWYLQKPGQSPQLLIYKVSNRFSGVPDRFSGSGSGTDFTLKISRVEAEDVGVYYCSQNTHVPPTFGQGTKVEIE | 58 | 58 | 98 | 50 | 53
GpH7-B3/GpL16-k0 variant D270Q (antibody, human IgG1, also called B3 variant; copies: 2 + 2) heavy: not shown light: DIVMTQSPLSLPVTPGEPASISCQASESLVHSNRNTYLHWYLQKPGQSPQLLIYKVSNRFSGVPDRFSGSGSGTDFTLKISRVEAEDVGVYYCSQNTHVPPTFGQGTKVEIE | 2 | 78 | 82 | 49 | 0
GpH7-B3/GpL16-k0 variant P271W (antibody, human IgG1, also called B3 variant; copies: 2 + 2) heavy: not shown light: DIVMTQSPLSLPVTPGEPASISCQASESLVHSNRNTYLHWYLQKPGQSPQLLIYKVSNRFSGVPDRFSGSGSGTDFTLKISRVEAEDVGVYYCSQNTHVPPTFGQGTKVEIE | 46 | 75 | 100 | 57 | 33
